Data: article PMC4671291 (The Biochemical journal, 2011)

Target: the molecule itself
Test: SEC

B1: Saccharomyces cerevisiae dUTP pyrophosphatase DUT1 (enzyme, S. cerevisiae)
chain: MTATSDKVLKIQLRSASATVPTKGSATAAGYDIYASQDITIPAMGQGMVSTDISFTVPVGTYGRIAPRSGLAVKNGIQTGAGVVDRDYTGEVKVVLFNHSQRDFAIKKGDRVAQLILEKIVDDAQIVVVDSLEESARGAGGFGSTGN
  stoichiometry N: 3
